The target in assay [1] is PR20, extreme drug-resistant mutant of mature HIV-1 protease (HIV-1). In words: enzyme activity against protease concentration.
Assay [2] has as its target PR, mature HIV-1 protease containing the mutations Q7K, L33I, L63I, C67A, C95A (HIV-1). In words: differential scanning calorimetry. In general terms: DSC measures the heat that a sample takes up or gives off during a temperature scan.
Assay [3] has as its target ScPR, single-chain dimer of two PR monomers linked by a GGSSG sequence (HIV-1). The assay is described as follows: differential scanning calorimetry.

Turning to “PR20, extreme drug-resistant mutant of mature HIV-1 protease (enzyme)”, the Kd (in general, the constant that tells how readily two partners part at equilibrium) in assay [1] came to 29 nM. As for “RPB, substrate (CA/SP1) analogue inhibitor H-Arg-Val-Leu-(r)-Phe-Glu-Ala-Nle-NH2 (peptide)”, the ΔTm (I), Tm(+inhibitor)-Tm(−inhibitor) in assay [2] came out at 9.2 °C; in assay [3] it was 7.8 °C.

Source of the values: PMC3888107.
